Reference: IntAct's records for PubMed 21965663

Calcipressin-1 (Homo sapiens), P53805-2 S112A, sequence (P53805 other isoform, or with tags, fused parts or gaps S112A): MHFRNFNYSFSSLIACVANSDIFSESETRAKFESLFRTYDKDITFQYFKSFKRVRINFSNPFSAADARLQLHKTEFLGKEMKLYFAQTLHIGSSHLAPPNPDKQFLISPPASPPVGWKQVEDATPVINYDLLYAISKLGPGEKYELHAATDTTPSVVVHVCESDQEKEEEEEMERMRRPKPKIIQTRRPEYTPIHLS
Calcipressin-1 (Homo sapiens), P53805-2 S112A;T192A, sequence (P53805 other isoform, or with tags, fused parts or gaps S112A;T192A): as the sequence (P53805 other isoform, or with tags, fused parts or gaps S112A) above
Calcipressin-1 (Homo sapiens), P53805-2 T192A, sequence (P53805 other isoform, or with tags, fused parts or gaps T192A): as the sequence (P53805 other isoform, or with tags, fused parts or gaps S112A) above

These substances were tested against dyr1a_mouse Dyrk1a (UniProt Q61214).
For “Calcipressin-1 (Homo sapiens), P53805-2 S112A”, the “effect of a mutation on the interaction” value was “decreasing interaction”. For “Calcipressin-1 (Homo sapiens), P53805-2 S112A;T192A”, the “effect of a mutation on the interaction” value was “disrupting interaction”. For “Calcipressin-1 (Homo sapiens), P53805-2 T192A”, the “effect of a mutation on the interaction” value was “decreasing interaction”.
